The supplement of paper PMC10126150
± gives the standard deviation of the averaged measurements.
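Note: ATP exposure 15 min at 22 °C before imaging.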

Each sequence was assayed on ATP (assay: switch fluorescence ratio, 500 uM ATP over buffer (Cy3 cluster intensity, sum of 5 cycles each) (fold (ratio)); higher = stronger signal-on switching upon ATP binding; sequences stand for … in TCGTCGGCAGCGTCAGATGTGTATAAGAGACAGTTTTTTTTTTTTTTTTTTTTTTTTT…TC). Details: aptamer strand: ATP DNA aptamer (quencher-CACCTGGGGGAGTATTGCGGAGGAAGG + anchor), 100 nM annealed; ATP concentration: 500 uM.
Method in brief: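 For every switch-domain sequence, the fluorescence ratio is the mean of per-cluster values, each being summed target-cycle Cy3 intensity over summed buffer-cycle Cy3 intensity. Clusters outside 100-1000 RFU were excluded. On a modified Illumina MiSeq flow-cell, the Cy3-labelled switching-strand clusters were annealed to 100 nM quencher-labelled ATP aptamer, imaged in selection buffer and then after 15 min with 500 uM ATP at 22 °C. Five such cycles were run, with NaOH stripping and re-annealing between them.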
TTATTAATCT gave a switch fluorescence ratio of 0.9974 ± 0.0049. With TTATTAATT the switch fluorescence ratio was 0.997 ± 0.028. With TTATTAGTTA the switch fluorescence ratio was 0.988 ± 0.011. With TTATTATGCC the switch fluorescence ratio was 1.02 ± 0.061. For TTATTATGTG, the switch fluorescence ratio was 0.946 ± 0.022. TTATTATTCA gave a switch fluorescence ratio of 1.008 ± 0.0047. Sequence TTATTATTTC has a switch fluorescence ratio of 0.98 ± 0.05. TTATTCAAGG gave a switch fluorescence ratio of 0.99 ± 0.017. TTATTCAGGA gave a switch fluorescence ratio of 1.01 ± 0.029. TTATTCATGT showed a switch fluorescence ratio of 0.984 ± 0.011. TTATTCGAGA was tested, and the switch fluorescence ratio was 1.02 ± 0.034. TTATTCGGTG showed a switch fluorescence ratio of 0.98 ± 0.021. TTATTCGTGT showed a switch fluorescence ratio of 1.01 ± 0.04. TTATTCTGTT gave a switch fluorescence ratio of 0.976 ± 0.047. With TTATTGAGTA the switch fluorescence ratio was 1.005 ± 0.0048. TTATTGCATG was tested, and the switch fluorescence ratio was 0.96 ± 0.013. In the case of TTATTGCTGT, the switch fluorescence ratio is reported as 0.989 ± 0.013. TTATTGGAAA was tested, and the switch fluorescence ratio was 1.012 ± 0.0059. TTATTGGGCC gave a switch fluorescence ratio of 1.01 ± 0.026. With TTATTGGGGC the switch fluorescence ratio was 1.01 ± 0.03. TTATTGGGGT gave a switch fluorescence ratio of 1.01 ± 0.013. TTATTTACTA gave a switch fluorescence ratio of 1.04 ± 0.011. Work on TTATTTAGCT yielded a switch fluorescence ratio of 1.01 ± 0.017. Sequence TTATTTAGGG has a switch fluorescence ratio of 0.991 ± 0.0055. TTATTTATGT was tested, and the switch fluorescence ratio was 1 ± 0.012. In the case of TTATTTCGAA, the switch fluorescence ratio is reported as 1.01 ± 0.012. TTATTTCGTT was tested, and the switch fluorescence ratio was 0.989 ± 0.026. For TTATTTGGTA, the switch fluorescence ratio was 0.986 ± 0.044. For TTATTTGTTG, the switch fluorescence ratio was 0.971 ± 0.05. In the case of TTATTTTAGC, the switch fluorescence ratio is reported as 0.976 ± 0.019. TTATTTTCAG gave a switch fluorescence ratio of 0.996 ± 0.053. Sequence TTATTTTTAA has a switch fluorescence ratio of 0.9809 ± 0.0038. For TTATTTTTCT, the switch fluorescence ratio was 1.01 ± 0.032. In the case of TTATTTTTT, the switch fluorescence ratio is reported as 1.02 ± 0.018. TTCAAATATA gave a switch fluorescence ratio of 1.003 ± 0.0017. In the case of TTCAAATCGA, the switch fluorescence ratio is reported as 1 ± 0.039. For TTCAAATGAA, the switch fluorescence ratio was 1 ± 0.016. Work on TTCAAATGGA yielded a switch fluorescence ratio of 0.991 ± 0.041. For TTCAAGGGGT, the switch fluorescence ratio was 0.994 ± 0.025. TTCAAGGTGC gave a switch fluorescence ratio of 1.4 ± 0.069. TTCAATGAAA gave a switch fluorescence ratio of 1 ± 0.054. For TTCAATGAGG, the switch fluorescence ratio was 0.973 ± 0.052. In the case of TTCAATGGTG, the switch fluorescence ratio is reported as 1.023 ± 0.0014. Work on TTCAATTGTT yielded a switch fluorescence ratio of 1.02 ± 0.017. In the case of TTCACATAGC, the switch fluorescence ratio is reported as 1.05 ± 0.1. TTCACTTGGA showed a switch fluorescence ratio of 1.03 ± 0.033. With TTCACTTGTG the switch fluorescence ratio was 1 ± 0.018. In the case of TTCAGAATTG, the switch fluorescence ratio is reported as 1.0012 ± 0.00092. With TTCAGACAGG the switch fluorescence ratio was 1.09 ± 0.02. TTCAGATTGC showed a switch fluorescence ratio of 0.987 ± 0.044. Sequence TTCAGCAGAG has a switch fluorescence ratio of 1.41 ± 0.59. TTCAGCGTCT showed a switch fluorescence ratio of 0.975 ± 0.043. In the case of TTCAGCTGTT, the switch fluorescence ratio is reported as 1.01 ± 0.011. TTCAGGCATG gave a switch fluorescence ratio of 0.999 ± 0.04. TTCAGGCTGT gave a switch fluorescence ratio of 0.9811 ± 0.0054. TTCAGGGGGA gave a switch fluorescence ratio of 1.02 ± 0.023. TTCAGGGTTT gave a switch fluorescence ratio of 1.5 ± 0.9. TTCAGGTGCC gave a switch fluorescence ratio of 1.46 ± 0.04. TTCAGTTTAG was tested, and the switch fluorescence ratio was 1 ± 0.031. Sequence TTCAGTTTTG has a switch fluorescence ratio of 0.982 ± 0.024. In the case of TTCATAGTCG, the switch fluorescence ratio is reported as 0.98 ± 0.07. With TTCATCCAGC the switch fluorescence ratio was 1.13 ± 0.07. Work on TTCATCGCTG yielded a switch fluorescence ratio of 1.04 ± 0.053. In the case of TTCATGGAGT, the switch fluorescence ratio is reported as 0.983 ± 0.028. Sequence TTCATGGATA has a switch fluorescence ratio of 0.999 ± 0.066. Work on TTCATGGGGA yielded a switch fluorescence ratio of 0.985 ± 0.023. With TTCATGGGGT the switch fluorescence ratio was 1.04 ± 0.033. TTCATGTGAA gave a switch fluorescence ratio of 1 ± 0.04. Sequence TTCATTACCC has a switch fluorescence ratio of 1.028 ± 0.0082. TTCATTCCGA showed a switch fluorescence ratio of 1.29 ± 0.095. TTCATTTACA showed a switch fluorescence ratio of 1.04 ± 0.033. TTCCAAGGGA was tested, and the switch fluorescence ratio was 1 ± 0.029. TTCCAGGATT was tested, and the switch fluorescence ratio was 1.04 ± 0.089. TTCCAGTCC gave a switch fluorescence ratio of 1.06 ± 0.027. TTCCATGGCC gave a switch fluorescence ratio of 1.04 ± 0.044. In the case of TTCCCAAATT, the switch fluorescence ratio is reported as 1.19 ± 0.19. Work on TTCCCCATTG yielded a switch fluorescence ratio of 1.09 ± 0.023. With TTCCCCGGCA the switch fluorescence ratio was 1.28 ± 0.35. TTCCCGATCA showed a switch fluorescence ratio of 1.01 ± 0.018. With TTCCCTGTTT the switch fluorescence ratio was 1.01 ± 0.023. In the case of TTCCCTTAAT, the switch fluorescence ratio is reported as 1 ± 0.015. For TTCCGACCGG, the switch fluorescence ratio was 1.28 ± 0.38. In the case of TTCCGATTCG, the switch fluorescence ratio is reported as 1.09 ± 0.035. With TTCCGGAGGC the switch fluorescence ratio was 1.22 ± 0.28. TTCCGGGCGT gave a switch fluorescence ratio of 1.12 ± 0.058.
